Experimental data published in PMC2119460.

Target: H-2Db class I MHC molecule on the surface of RMA-S cells (mouse (endogenous in RMA-S))

Which fold increase in H-2Db reactivity (mAb 28.14.8) after peptide treatment does the source give for influenza NP (365-380) peptide here?
Its fold increase in H-2Db reactivity (mAb 28.14.8) after peptide treatment is 2 fold.
